This passage reports protein stability index results from the supplement of paper PMC10567573.

B1: LCOR (parent)
chain: PCAGSTSLSHSPGCSSTQGNGRPG
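Further: lentivirally expressed fusions sorted by FACS into six bins by GFP to DsRed ratio, PSI derived from sequencing read proportions per bin multiplied by bin number.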

The series covers variants of B1. As to the kind of experiment: protein stability index of a GFP-peptide fusion (GPS, HEK-293T) (PSI 1-6); higher = more stable. The settings on record: c terminus: a fixed tail appended.
RCAGSTSLSHSPGCSSTQGNGRPG [P1R]: the protein stability index stood at 3.63. In the case of FCAGSTSLSHSPGCSSTQGNGRPG [P1F] it was 3.04. As for KCAGSTSLSHSPGCSSTQGNGRPG [P1K], the figure is 4.35; as for MCAGSTSLSHSPGCSSTQGNGRPG [P1M], 3.39. As for CCAGSTSLSHSPGCSSTQGNGRPG [P1C], the figure is 4.16.

Take ECAGSTSLSHSPGCSSTQGNGRPG [P1E]: the protein stability index was 3.77.

With NCAGSTSLSHSPGCSSTQGNGRPG [P1N], the protein stability index was 4.33. Take ACAGSTSLSHSPGCSSTQGNGRPG [P1A]: the protein stability index worked out at 2.61. For the variant ICAGSTSLSHSPGCSSTQGNGRPG [P1I], the protein stability index was determined as 3.48. Consider DCAGSTSLSHSPGCSSTQGNGRPG [P1D], for which the protein stability index turned out to be 4.08.

As to SCAGSTSLSHSPGCSSTQGNGRPG [P1S], the protein stability index stood at 3.12. HCAGSTSLSHSPGCSSTQGNGRPG [P1H]: the protein stability index amounted to 2.48. Consider LCAGSTSLSHSPGCSSTQGNGRPG [P1L], for which the protein stability index is 3.57. Consider YCAGSTSLSHSPGCSSTQGNGRPG [P1Y], for which the protein stability index turned out to be 2.96.

With PCAGSTSLRHSPGCSSTQGNGRPG [S9R], the protein stability index was determined as 1.04. As for PCAGSTSLEHSPGCSSTQGNGRPG [S9E], the protein stability index is 3.85. Consider PCAGSTSLQHSPGCSSTQGNGRPG [S9Q], for which the protein stability index is 3.48. As for PCAGSTSLMHSPGCSSTQGNGRPG [S9M], the figure is 3.48; as for PCAGSTSLGHSPGCSSTQGNGRPG [S9G], 2.85; as for PCAGSTSLTHSPGCSSTQGNGRPG [S9T], 3. As to PCAGSTSLYHSPGCSSTQGNGRPG [S9Y], the protein stability index amounted to 1.89.

As for PCAGSTSLWHSPGCSSTQGNGRPG [S9W], the protein stability index is 2.66. For the variant PCAGSTSLFHSPGCSSTQGNGRPG [S9F], the protein stability index worked out at 2.4. With PCAGSTSLPHSPGCSSTQGNGRPG [S9P], the protein stability index turned out to be 3.79. With PCAGSTSLDHSPGCSSTQGNGRPG [S9D], the protein stability index worked out at 4.12. With PCAGSTSLHHSPGCSSTQGNGRPG [S9H], the protein stability index turned out to be 2.36.

Regarding PCAGSTSLKHSPGCSSTQGNGRPG [S9K], the protein stability index turned out to be 3.62. In the case of PCAGSTSLSHSRGCSSTQGNGRPG [P12R] it was 2.92; in that of PCAGSTSLSHSEGCSSTQGNGRPG [P12E], 4.43. As for PCAGSTSLSHSKGCSSTQGNGRPG [P12K], the protein stability index was found to be 3.86.

As for PCAGSTSLSHSLGCSSTQGNGRPG [P12L], the protein stability index came out at 3.23.

Turning to PCAGSTSLSHSAGCSSTQGNGRPG [P12A], the protein stability index turned out to be 3.99.

For PCAGSTSLSHSTGCSSTQGNGRPG [P12T], the protein stability index is 4.1. With PCAGSTSLSHSQGCSSTQGNGRPG [P12Q], the protein stability index turned out to be 3.02. In the case of PCAGSTSLSHSNGCSSTQGNGRPG [P12N], the protein stability index amounted to 4.11. As for PCAGSTSLSHSSGCSSTQGNGRPG [P12S], the figure is 3.55. Turning to PCAGSTSLSHSMGCSSTQGNGRPG [P12M], the protein stability index was determined as 3.12.

Regarding PCAGSTSLSHSHGCSSTQGNGRPG [P12H], the protein stability index is 3.9.

As for PCAGSTSLSHSDGCSSTQGNGRPG [P12D], the protein stability index turned out to be 4.35. For PCAGSTSLSHSIGCSSTQGNGRPG [P12I], the protein stability index was 2.73. With PCAGSTSLSHSVGCSSTQGNGRPG [P12V], the protein stability index came out at 3.15. On to PCAGSTSLSHSGGCSSTQGNGRPG [P12G], for which the protein stability index was determined as 4.15. Take PCAGSTSLSHSYGCSSTQGNGRPG [P12Y]: the protein stability index is 3.39. For PCAGSTSLSHSFGCSSTQGNGRPG [P12F], the protein stability index came to 1.91. Regarding PCAGSTSLSHSCGCSSTQGNGRPG [P12C], the protein stability index was found to be 1.01. For the variant PCAGATSLSHSPGCSSTQGNGRPG [S5A], the protein stability index was determined as 2.98.

PCAGGTSLSHSPGCSSTQGNGRPG [S5G]: the protein stability index was 4.2.

PCAGITSLSHSPGCSSTQGNGRPG [S5I]: the protein stability index was 1.61. Consider PCAGTTSLSHSPGCSSTQGNGRPG [S5T], for which the protein stability index stood at 1.75.

As for PCAGETSLSHSPGCSSTQGNGRPG [S5E], the protein stability index was determined as 3.94. In the case of PCAGMTSLSHSPGCSSTQGNGRPG [S5M] it was 2.9. Turning to PCAGKTSLSHSPGCSSTQGNGRPG [S5K], the protein stability index is 4.35. For PCAGFTSLSHSPGCSSTQGNGRPG [S5F], the protein stability index was 3.35.

Consider PCAGYTSLSHSPGCSSTQGNGRPG [S5Y], for which the protein stability index came out at 2.41. Consider PCAGPTSLSHSPGCSSTQGNGRPG [S5P], for which the protein stability index stood at 2.15.

Take PCAGNTSLSHSPGCSSTQGNGRPG [S5N]: the protein stability index worked out at 2.67.

Turning to PCAGWTSLSHSPGCSSTQGNGRPG [S5W], the protein stability index worked out at 3.35. As for PCAGRTSLSHSPGCSSTQGNGRPG [S5R], the protein stability index was 2.71. As for PCAGDTSLSHSPGCSSTQGNGRPG [S5D], the figure is 4.27; as for PCAGSTSNSHSPGCSSTQGNGRPG [L8N], 4.15; as for PCAGSTSESHSPGCSSTQGNGRPG [L8E], 4.45. As for PCAGSTSTSHSPGCSSTQGNGRPG [L8T], the figure is 4.15; as for PCAGSTSKSHSPGCSSTQGNGRPG [L8K], 4.34; as for PCAGSTSGSHSPGCSSTQGNGRPG [L8G], 4.25.

With PCAGSTSFSHSPGCSSTQGNGRPG [L8F], the protein stability index was found to be 3.91.

On to PCAGSTSCSHSPGCSSTQGNGRPG [L8C], for which the protein stability index worked out at 4.55.

As to PCAGSTSPSHSPGCSSTQGNGRPG [L8P], the protein stability index worked out at 4.24. On to PCAGSTSYSHSPGCSSTQGNGRPG [L8Y], for which the protein stability index was 4.95. As for PCAGSTSVSHSPGCSSTQGNGRPG [L8V], the figure is 3.58.

As to PCAGSTSRSHSPGCSSTQGNGRPG [L8R], the protein stability index amounted to 3.87. On to PCAGSTSISHSPGCSSTQGNGRPG [L8I], for which the protein stability index came out at 3.67.

For PLAGSTSLSHSPGCSSTQGNGRPG [C2L], the protein stability index was found to be 4.76. In the case of PHAGSTSLSHSPGCSSTQGNGRPG [C2H], the protein stability index amounted to 4.99. PWAGSTSLSHSPGCSSTQGNGRPG [C2W]: the protein stability index is 4.09. With PQAGSTSLSHSPGCSSTQGNGRPG [C2Q], the protein stability index worked out at 4.65. As for PTAGSTSLSHSPGCSSTQGNGRPG [C2T], the protein stability index came to 3.63.

With PKAGSTSLSHSPGCSSTQGNGRPG [C2K], the protein stability index was determined as 4.48. Consider PAAGSTSLSHSPGCSSTQGNGRPG [C2A], for which the protein stability index came out at 2.92. As to PFAGSTSLSHSPGCSSTQGNGRPG [C2F], the protein stability index was found to be 3.99. In the case of PNAGSTSLSHSPGCSSTQGNGRPG [C2N] it was 4.74; in that of PIAGSTSLSHSPGCSSTQGNGRPG [C2I], 2.92. On to PVAGSTSLSHSPGCSSTQGNGRPG [C2V], for which the protein stability index worked out at 4.04. On to PYAGSTSLSHSPGCSSTQGNGRPG [C2Y], for which the protein stability index turned out to be 3.55. For PSAGSTSLSHSPGCSSTQGNGRPG [C2S], the protein stability index stood at 3.28. For PRAGSTSLSHSPGCSSTQGNGRPG [C2R], the protein stability index came out at 5.27. As for PCAGSTILSHSPGCSSTQGNGRPG [S7I], the protein stability index came out at 1.92. Take PCAGSTALSHSPGCSSTQGNGRPG [S7A]: the protein stability index stood at 2.19.

Consider PCAGSTKLSHSPGCSSTQGNGRPG [S7K], for which the protein stability index is 4. As for PCAGSTMLSHSPGCSSTQGNGRPG [S7M], the figure is 1.82; as for PCAGSTYLSHSPGCSSTQGNGRPG [S7Y], 2.87. Take PCAGSTDLSHSPGCSSTQGNGRPG [S7D]: the protein stability index stood at 4.82. As for PCAGSTFLSHSPGCSSTQGNGRPG [S7F], the figure is 2.72; as for PCAGSTLLSHSPGCSSTQGNGRPG [S7L], 1.64; as for PCAGSTWLSHSPGCSSTQGNGRPG [S7W], 3.05.
